According to paper PMC2517623:
Each block holds one substance with its values, some of them ahead of it.

Biological target: Crm1 (Xpo1) (UniProt P30822)
Assay: biotin-peptide streptavidin pulldown, stained gel

binding against the reference (reference: unphosphorylated 122-150 peptide, sites S122): weaker
Substance: Ace2 122-150 (from UniProt P21192) pS122 peptide

binding against the reference (reference: unphosphorylated 122-150 peptide, sites S137): weaker
Substance: Ace2 122-150 (from UniProt P21192) pS137 peptide

binding against the reference (reference: pS122 peptide, untreated, sites S122): stronger
Substance: Ace2 122-150 (from UniProt P21192) pS122 peptide, λ-phosphatase treated

binding against the reference (reference: pS137 peptide, untreated, sites S137): stronger
Substance: Ace2 122-150 (from UniProt P21192) pS137 peptide, λ-phosphatase treated
